The values below come from patent US20090074766A1, “Methods of inhibiting HIV-2 infection” (priority 2007, published 2009).

Values joined by “and” are separate entries in the source; they are usually repeats but may differ in a detail not shown here. Identical values can stand only once. Like-named read-outs stand apart in the source and are kept apart here.

Experiment [1] has as its system primary R5 HIV-1 isolates. As to the kind of experiment: Whole virus replication (neutralization) assay in PBMC, p24 ELISA. The format is cell-based. Particulars: variety of primary R5 strains (FIG. 1). The method, then: The data reflect the median values from 8 or more independent assays. The genetic subtypes of the viruses are indicated in parentheses.
Replication of authentic HIV-1 is measured in activated peripheral blood mononuclear cells (PBMCs) using the monocyte/macrophage-tropic HIV-1 clone, JRFL (HIV-1JRFL), for these studies.
PBMCs are isolated from 4 separate donors (Leukopacks) by centrifugation on a Ficoll gradient. CD8 cells are depleted using RosetteSep CD8 Depletion Cocktail (#15663, StemCell Research, Vancouver, BC). […]
Serial dilutions of virus are tested in quadruplicate on activated PBMCs (1.4×10^5 PBMC/well). […] Virus titer is determined by the method of Reed and Muench (Table 11, see below). […]
The percent inhibition is derived as follows [1−(p24 levels in the presence of drug/p24 levels in the absence of drug)]×100. IC50 values are determined by fitting the inhibition data with a non-linear, four-parameter, variable slope equation (GraphPad Prism, ver. 4.02; GraphPad Software, San Diego, Calif.). […]
Serial dilutions of virus are tested in quadruplicate on activated PBMCs (1.4×10^5 PBMC/well). […] Virus titer is determined by the method of Reed and Muench (Table 11).
For orientation: In an ELISA, binding on a coated surface is turned into a signal by an enzyme label.

Experiment [2] concerns HIV-1 (CCR5-tropic virus). The class given is in vivo. Particulars: for Mean log10 HIV RNA change: Day 10 post-treatment. The text has this:
The efficacy data collected during the study were changes in viral load and CD4 counts over time. The safety data collected during the study were serious adverse events (SAEs)/adverse events (AEs) and changes in laboratory parameters (hematology, chemistry), physical exam, viral tropism and ECGs over time.
All patients were screened prior to the study for the presence of virus that utilizes only CCR5 as the entry coreceptor., i.e., CCR5-tropic virus.
The primary efficacy endpoint was the reduction in plasma HIV RNA level as measured by the Roche Amplicor™ Assay. The primary efficacy endpoint is the maximum change from baseline in viral load, defined as HIV-1 copies/ml, as measured by the Roche Amplicor™ Assay.

B1: PRO 140: humanized IgG4,κ anti-CCR5 monoclonal antibody, humanized version of murine mAb PA14 (antibody, chains of the INN, looked up, V domains shown)
VH: EVQLVESGGGLVKPGGSLRLSCAASGYTFSNYWIGWVRQAPGKGLEWIGDIYPGGNYIRNNEKFKDKTTLSADTSKNTAYLQMNSLKTEDTAVYYCGSSFGSNYVFAWFTYWGQGTLVTVSS
VL: DIVMTQSPLSLPVTPGEPASISCRSSQRLLSSYGHTYLHWYLQKPGQSPQLLIYEVSNRFSGVPDRFSGSGSGTDFTLKISRVEAEDVGVYYCSQSTHVPLTFGQGTKVEIK
By IC90 is commonly meant the point of the concentration-response curve where the effect stands at 90%. As to B1, in experiment [1], the IC90 is 3 to 4 µg/mL. Besides, the “individual viral load reductions ranging up to” value in experiment [2] (2.0 mg/kg and 5.0 mg/kg dose levels) was “up to 2.5 log10 and ≤ 99.7%”. Besides, in experiment [2] (5 mg/kg), the “Maximum decrease of viral load at any time” value is −1.8 log, the “Patients with <400 copies/mL (anytime)” value is listed as 4/10, the “Patients with >1 log decrease (anytime)” value is 10/10 and the “viral load decrease at day 22” value is reported as −0.73. Also, in experiment [2] (5.0 mg/kg cohort), the “time to suppression of mean viral load by 1.0 log10 (90%)” value was “within four days” and the “time viral load persisted at or below the 1.0 log10 level of reduction” value was “two to three weeks”. In addition, the “Mean log10 HIV RNA change” value in experiment [2] (0.5 mg/kg) is −0.37 log10. Besides, in experiment [2] (2.0 mg/kg), the “Mean log10 HIV RNA change” value is listed as −1.04 log10. In addition, the “Mean log10 HIV RNA change” value in experiment [2] (5.0 mg/kg) was −1.70 log10. Moreover, in experiment [2] (highest dose cohort), the “response rate (percentage of patients with a ≧1 log10 decrease in HIV RNA at any time)” value turned out to be 100%.
